The target of test [1] is human ErbB2 on BT474 human breast tumor cells (human) (UniProt P04626). The experiment in a line: cell-based or functional assay.
Test [2] shares this target. Put plainly: Scatchard analysis, 125I-labelled antibody on BT474 cell monolayers, 4 hours on ice.

The record followed here is US20170190786A1.

A word on the Kd: it is the equilibrium constant for the complex coming apart.

As to “anti-ErbB2 IgG1κ murine monoclonal antibody 7C2”, in test [1], the % apoptosis of the BT474 cell population is 60.5% and the proportion of S-phase cells (BT474) turned out to be 64.9%.
Turning to “anti-ErbB2 IgG1κ murine monoclonal antibody 4D5”, in test [1], the % apoptosis of the BT474 cell population is 41.9% and the proportion of S-phase cells (BT474) was determined as 5.4%. Also, in test [2], the dissociation constant (Kd) was determined as 6.5 nM.
